Target: factor H CCPs 6 & 7 (human, UniProt P08603, 402^His)
Assay: SPR

B1: factor H binding protein, construct comprising regions A, B and C but lacking the lipid anchor (natural protein)
chain: GGVAADIGAGLADALTAPLDHKDKGLQSLTLDQSVRKNEKLKLAAQGAEKTYGNGDSLNTGKLKNDKVSRFDFIRQIEVDGQLITLESGEFQVYKQSHSALTAFQTEQIQDSEHSGKMVAKRQFRIGDIAGEHTSFDKLPEGGRATYRGTAFGSDDAGGKLTYTIDFAAKQGNGKIEHLKSPELNVDLAAADIKPDGKRHAVISGSVLYNQAEKGSYSLGIFGGKAQEVAGSAEVKTVNGIRHIGLAAKQ
In the case of B1, the Kd is reported as ~5 nM.

From paper PMC2670278 (Nature, 2009)
